Consider two molecules from US20030129189A1, “Tumor necrosis factor-gamma” (priority 1994, published 2003).

One assay has as its system NRK-54E. Nature of the assay: TNF-gamma activity on NRK-54E cells. Type of assay: cell-based. Set-up: key: The numbers of “+” indicate the relative level of activities.; ++: The numbers of “+” indicate the relative level of activities.; +++: The numbers of “+” indicate the relative level of activities.; “−” indicates no detected activity at the concentration range tested. The following applies: rat kidney epithelial-like.

Assay [1] concerns the target T1, TNFR2 on transiently transfected cells (UniProt P20333 23-461, limits assumed).
T1 construct: whole, on cells
T1 sequence (looked up): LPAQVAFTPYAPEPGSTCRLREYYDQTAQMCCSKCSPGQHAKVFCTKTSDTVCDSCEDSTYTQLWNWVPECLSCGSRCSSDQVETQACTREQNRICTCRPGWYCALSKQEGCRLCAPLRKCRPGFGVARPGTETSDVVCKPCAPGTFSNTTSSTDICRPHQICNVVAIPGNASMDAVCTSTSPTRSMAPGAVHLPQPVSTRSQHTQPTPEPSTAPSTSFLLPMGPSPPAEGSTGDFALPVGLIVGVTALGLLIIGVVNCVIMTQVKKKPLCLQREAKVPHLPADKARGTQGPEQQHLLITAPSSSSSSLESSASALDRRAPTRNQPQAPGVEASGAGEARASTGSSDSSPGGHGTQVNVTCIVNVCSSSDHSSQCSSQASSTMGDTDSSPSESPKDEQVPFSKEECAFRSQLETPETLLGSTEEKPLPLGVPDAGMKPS
Nature of the assay: flow cytometry on transiently transfected cells. How it is done:
(§1) One million cells, in 0.1 ml of FACS buffer (PBS, 0.1% BSA, 0.1% NaN₃), were incubated with 0.1-1 microgram of protein or antibody at RT for 15 min. The cells were washed with 3 ml of FACS buffer, reacted with biotinylated primary antibody, and stained with PE-conjugated secondary antibody at RT for 15 min. Cells were then washed again, resuspended in 0.5 microgram/ml of propidium iodide, and live cells were gated and analyzed on a FACScan using the CellQuest software (BD Biosciences).
A general note: In flow cytometry, cells or beads pass a laser one at a time.

Assay [2] has as its target T2, 4-1BB on transiently transfected cells (UniProt Q07011 24-255).
T2 construct: whole, on cells
Nature of the assay: flow cytometry on transiently transfected cells. How it is done:
as §1

Assay [3] concerns the target T3, CD30 on transiently transfected cells (UniProt P28908 19-595, limits assumed).
T3 construct: whole, on cells
T3 sequence (looked up): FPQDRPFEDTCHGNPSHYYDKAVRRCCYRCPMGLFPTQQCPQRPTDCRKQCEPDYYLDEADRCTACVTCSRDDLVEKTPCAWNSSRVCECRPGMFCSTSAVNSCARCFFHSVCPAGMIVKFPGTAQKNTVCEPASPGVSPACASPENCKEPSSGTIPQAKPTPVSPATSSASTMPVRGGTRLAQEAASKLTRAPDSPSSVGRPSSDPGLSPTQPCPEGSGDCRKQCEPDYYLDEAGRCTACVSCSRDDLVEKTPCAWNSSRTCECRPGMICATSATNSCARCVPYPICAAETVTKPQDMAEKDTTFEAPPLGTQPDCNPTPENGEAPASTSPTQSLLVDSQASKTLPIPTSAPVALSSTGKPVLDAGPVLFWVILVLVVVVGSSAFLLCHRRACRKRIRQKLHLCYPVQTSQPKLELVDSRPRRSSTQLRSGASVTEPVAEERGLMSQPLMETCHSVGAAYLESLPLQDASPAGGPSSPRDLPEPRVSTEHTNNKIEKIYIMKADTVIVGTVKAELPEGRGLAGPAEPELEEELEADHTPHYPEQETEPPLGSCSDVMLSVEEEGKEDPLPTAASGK
Nature of the assay: flow cytometry on transiently transfected cells. Here is the method: as §1

Assay [4] concerns the target T4, BCMA on transiently transfected cells (UniProt Q02223 1-184, limits assumed).
T4 construct: whole, on cells
T4 sequence (looked up): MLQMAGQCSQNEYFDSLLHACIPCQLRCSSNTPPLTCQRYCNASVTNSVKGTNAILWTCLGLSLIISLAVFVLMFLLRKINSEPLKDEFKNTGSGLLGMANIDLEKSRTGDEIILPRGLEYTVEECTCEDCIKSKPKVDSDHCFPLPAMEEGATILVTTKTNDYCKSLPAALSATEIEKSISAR
Kind of assay: flow cytometry on transiently transfected cells. Here is the method:
as §1

Assay [5] addresses T5, DR4 on transiently transfected cells (UniProt O00220 24-468, limits assumed).
T5 construct: whole, on cells
T5 sequence (looked up): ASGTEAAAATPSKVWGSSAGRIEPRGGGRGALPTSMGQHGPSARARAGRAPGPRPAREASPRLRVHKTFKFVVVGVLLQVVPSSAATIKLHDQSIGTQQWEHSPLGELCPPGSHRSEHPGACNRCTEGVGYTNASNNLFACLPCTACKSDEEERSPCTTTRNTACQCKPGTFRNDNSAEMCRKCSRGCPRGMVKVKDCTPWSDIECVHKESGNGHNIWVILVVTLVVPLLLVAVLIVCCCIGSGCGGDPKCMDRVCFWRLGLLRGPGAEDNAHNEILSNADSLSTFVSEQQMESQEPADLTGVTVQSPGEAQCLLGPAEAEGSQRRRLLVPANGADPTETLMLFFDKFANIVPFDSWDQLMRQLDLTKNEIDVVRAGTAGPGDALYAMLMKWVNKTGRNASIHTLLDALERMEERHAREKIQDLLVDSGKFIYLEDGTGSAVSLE
Nature of the assay: flow cytometry on transiently transfected cells. Here is the method:
as §1

The target in assay [6] is T6, DR5 on transiently transfected cells (UniProt O14763 56-440, limits assumed).
T6 construct: whole, on cells
Nature of the assay: flow cytometry on transiently transfected cells. Here is the method: as §1

The target in assay [7] is T7, RANK on transiently transfected cells (UniProt Q9Y6Q6 30-616, limits assumed).
T7 construct: whole, on cells
T7 sequence (looked up): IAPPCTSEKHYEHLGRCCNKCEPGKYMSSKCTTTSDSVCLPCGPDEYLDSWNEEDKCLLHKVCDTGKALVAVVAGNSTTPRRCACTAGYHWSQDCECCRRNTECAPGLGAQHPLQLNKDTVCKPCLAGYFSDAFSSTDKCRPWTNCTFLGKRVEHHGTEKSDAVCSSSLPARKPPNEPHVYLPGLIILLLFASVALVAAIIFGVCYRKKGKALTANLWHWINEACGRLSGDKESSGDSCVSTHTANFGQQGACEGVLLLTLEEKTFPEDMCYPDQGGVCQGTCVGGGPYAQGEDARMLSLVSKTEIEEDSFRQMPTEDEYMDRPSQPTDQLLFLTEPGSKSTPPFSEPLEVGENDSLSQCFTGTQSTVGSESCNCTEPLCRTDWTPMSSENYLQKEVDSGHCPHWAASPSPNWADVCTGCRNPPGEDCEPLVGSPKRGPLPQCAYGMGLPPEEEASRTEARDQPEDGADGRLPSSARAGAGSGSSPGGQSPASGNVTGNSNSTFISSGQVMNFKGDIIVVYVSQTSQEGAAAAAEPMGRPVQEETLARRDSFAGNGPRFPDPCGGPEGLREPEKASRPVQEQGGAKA
Nature of the assay: flow cytometry on transiently transfected cells. How it is done: as §1

T2 sequence (Q07011 24-255): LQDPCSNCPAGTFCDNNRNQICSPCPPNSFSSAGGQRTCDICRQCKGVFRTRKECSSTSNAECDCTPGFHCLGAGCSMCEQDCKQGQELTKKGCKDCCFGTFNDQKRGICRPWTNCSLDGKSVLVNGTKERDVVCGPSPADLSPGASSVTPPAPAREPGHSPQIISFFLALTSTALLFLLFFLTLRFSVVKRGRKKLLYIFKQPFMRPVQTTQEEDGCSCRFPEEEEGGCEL

“TNF-gamma: new member of the tumor necrosis factor family; the term refers to TNF-gamma-alpha and/or TNF-gamma-beta”: in the assay with NRK-54E, the Adhesion result is “−−”, the Differentiation result was “−−” and the Proliferation entry is recorded as “−”.

B1: FLAG-tagged soluble TNF-gamma-beta (aa 72-251) (ligand)
chain: LKGQEFAPSHQQVYAPLRADGDKPRAHLTVVRQTPTQHFKNQFPALHWEHELGLAFTKNRMNYTNKFLLIPESGDYFIYSQVTFRGMTSECSEIRQAGRPNKPDSITVVITKVTDSYPEPTQLLMGTKSVCEVGSNWFQPIYLGAMFSLQEGDKLMVNVSDISLVDYTKEDKTFFGAFLL
notes: also called FLAG-TL1β; FLAG-TNF-gamma-beta; not shown: The N-terminal FLAG tag (pFLAG-CMV-1 vector) and any vector linker
As for B1, the binding result in assay [1], in assay [2], in assay [3], in assay [4], in assay [5] and in assay [6] was “no binding” throughout. The binding result in assay [7] was “no binding”.
